Assay results taken from patent USRE48558 (Genentech, dated 2021).
Residue numbers refer to the chain shown, from its start. Names may count otherwise. Values belong to the binder of their own block, whether it stands above or below them. Where no end group is shown, it is not given here.

Assays:
[1] = target: T1, 16 amino acid peptide containing the epitope for MA79b (ARSEDRYRNPKGSACK) (human, also: biotinylated, site not given here); experiment: SPR (Biacore), biotinylated peptide captured on streptavidin chip
T1 construct: Synthetic
T1 peptide: ARSEDRYRNPKGSACK

[2] = target: T2, human CD79b on the cell surface (human, UniProt P40259 29-229); experiment: Scatchard analysis, 125I-labelled IgG competed with unlabelled IgG on BJAB cells stably expressing cynomolgus CD79b and endogenous human CD79b
T2 construct: In the Scatchard analysis the BJAB line also stably expressed cynomolgus CD79b; also called PRO36249; endogenous human CD79b on DoHH-2, BJAB and BJAB-luciferase cells
T2 sequence: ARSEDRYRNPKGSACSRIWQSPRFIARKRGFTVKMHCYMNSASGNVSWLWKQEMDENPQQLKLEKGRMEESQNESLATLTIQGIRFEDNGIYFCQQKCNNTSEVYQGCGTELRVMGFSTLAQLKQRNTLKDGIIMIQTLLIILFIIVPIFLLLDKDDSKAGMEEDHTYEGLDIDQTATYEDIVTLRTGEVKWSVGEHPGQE

[3] = target: T3, extracellular domain of human CD79b (human, UniProt P40259 29-159); experiment: FACS analysis, IgG (data not shown); reference not given
T3 construct: also called huCD79becd; huCD79b-ecd
T3 sequence: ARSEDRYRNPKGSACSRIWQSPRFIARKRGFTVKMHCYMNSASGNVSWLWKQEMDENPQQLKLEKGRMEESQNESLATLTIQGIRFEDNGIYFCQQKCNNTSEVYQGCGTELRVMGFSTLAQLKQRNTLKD

[4] = target: T3, extracellular domain of human CD79b; experiment: SPR (Biacore), IgG, immobilized huCD79becd; reference not given

- binding result [1]: binds
- Kd [2]: 0.52 nM
B1: MA79b-grafted humanized antibody variant L2/H3 (antibody, name in Kabat numbering, V domains shown)
VH: EVQLVESGGGLVQPGGSLRLSCAASGYTFSSYWIEWVRQAPGKGLEWVGEILPGGGDTNYNEIFKGRFTISADTSKNTAYLQMNSLRAEDTAVYYCTRRVPIRLDYWGQGTLVTVSS
VL: DIQMTQSPSSLSASVGDRVTITCKASQSVDYDGDSFLNWYQQKPGKAPKLLIYAARKLGRGVPSRFSGSGSGTDFTLTISSLQPEDFATYYCQQSNEDPLTFGQGTKVEIKR
notes: 125I-labelled in the Scatchard analysis; also called huMA79b L2/H3

- fold reduction in binding affinity [3]: > 100 fold
- fold loss of affinity [4]: > 50 fold
B2: MA79b-grafted humanized antibody (IgG) (antibody, V domains shown)
VH: B1 VH with I102V, R103Y, L104F
VL: B1 VL with R56S, K57N, G59E, R60S
notes: Expressed as IgG; also called huMA79b graft; huMA79b-graft
